Test results as given in PMC10063446 (Nature Immunology, 2023).
Where two headings read alike, the source gives them in different places.

What was measured:
[1] = target: T1, recombinant RBD protein of wild-type SARS-CoV-2 (ELISA antigen) (SARS-CoV-2 wild-type, UniProt P0DTC2)
[2] = target: recombinant wild-type SARS-CoV-2 S trimer (ELISA antigen) (SARS-CoV-2 wild-type, UniProt P0DTC2)
[3] = target: T1, recombinant RBD protein of wild-type …; assay: ELISA; details: one partner purified
[4] = target: SARS-CoV-2 RBD immobilised on the CM5 chip (SARS-CoV-2 wild-type (assumed)); assay: SPR; details: both partners purified
SARS-CoV-2 wild-type RBD = target: T2, SARS-CoV-2 wild-type RBD (SARS-CoV-2 wild-type); assay: crystal structure; details: both partners purified
T2 construct: also called WT-RBD

B1: P186-2C12 (antibody, V domains shown)
VH: EVQLVESGGGVVRPGGSLRLSCAASGFTFDDYGMSWVRQAPGKGLEWVSGIYWNGGITGYADSLKGRFTISRDNAKNSLYLQMNSLRAEDTALYHCARDRGSGYYIFDYWGQGTLVTVSS
VL: not shown
binding result [1]: binds
binding result [2]: binds

B2: P186-2A8 (antibody, V domains shown)
VH: EVQLVESGGGLVQPGRSLRLSCAASGFTFDDYAMHWVRQAPGKGLEWVSGISWNSGSISYADSVKGRFTISRDNAKNSLYLQMNSLRAEDTALYYCAKALVGGHKYYYGMDVWGQGTTVTVSS
VL: not shown
binding result [1]: binds
binding result [2]: binds

B3: P2S-2E8 (antibody, V domains shown)
VH: EVQLVESGGGLVQPGGSLRLSCAASGFTFSSYWMSWVRQAPGKGLEWVANIKQDGSEKYYVDSVKGRFTISRDNAKNSLYLQMNSLRAEDTAVYYCARDLGILWFGELPNFDPWGQGTLVTVSS
VL: DIQMTQSPSSLSASVGDRVTITCRASQGISNSLAWYQQKPGKAPKLLLYAASRLESGVPSRFSGSGSGTDYTLTISSLQPEDFATYYCQQYYSTPPRTFGQGTKVEIK
binding result [1]: binds
binding result [2]: binds

B4: P10S-1G4 (antibody, V domains shown)
VH: QVQLQESGPGLVKPSQTLSLTCTVSGDSISSGDYYWIWIRQHPGKGLEWIGYIYYSGSTYYNPSLKSRVTISVDTSKNQFSLKLSSVTAADTAVYYCARVEYCSGGSCRRHNWFDPWGQGTLVTVSS
VL: QSVLTQPPSVSGAPGQRVTISCTGSSSNIGAGYDVHWYQQLPGTAPKLLIYGNSNRPSGVPDRFSGSKSGTSASLAITGLQAEDEADYYCQSYDSSLSGVVFGGGTKLTVL
binding result [1]: binds
binding result [2]: binds

B5: P195-1B8 (antibody, V domains shown)
VH: QVTLRESGPALVKPTQTLTLTCTFSGFSLSTSGMCVSWIRQPPGKALEWLALIDWDDDKYYSTSLKTRLTISKDTSKNQVVLTMTNMDPVDTATYYCARSWVGGGVDVWGQGTTVTVSS
VL: not shown
binding result [1]: binds
binding result [2]: binds

B6: P5-2B9 (antibody, V domains shown)
VH: EVQLVQSGAEVKKPGESLKISCKGSGHSFTSFWIGWVRQMPGKGLEWMGIIYPGDSETRYSPSFQGQVTISVDKSIFTAYLQWSSLKASDSAMYYCARISGKGVGWFDPWGQGTLVTVSS
VL: SYVLTQPPSVSVAPGQTARITCGGNNIGSKSVHWYQQKPGQAPVLVIYYDSDRPSGIPERFSGSNSGNTATLTISRVEAGDEADYYCQVWHSSSDHVVFGGGTKLTVL
binding result [1]: binds
binding result [2]: binds

B7: P195-2B9 (antibody, V domains shown)
VH: QVQLQESGPGLVKPSETLSLTCTVSGGSSSSHFWSWIRQPPGKGLEWIGYIYYGGNTNYNPSLKSRVTISVDTSKSQFSLKLSSVTAADTAVYYCARHHYYYDSSDFRLKAGYYFDYWGQGTLVAVSS
VL: QSVLTQPPSVSGAPGQRVTISCTGSSSNIGAGYDVHWYQQLPGTAPKLLIFDNNDRPSGVPDRFSGSKSDTSASLAITGLQAEDEADYYCQSYDSSLISWVFGGGTKLTLL
binding result [1]: binds
binding result [2]: binds

B8: P5S-2G8 (antibody, V domains shown)
VH: QMQLVQSGAEVKKTGSSVKVSCKASGSTFTHRYLHWVRQAPGQALEWMGWITPFNGDTNYAQKFQDRVTITRDGSMSTVYMDLSSLRSEDTAMYYCAAGARWGDSYYYYGMDVWGQGTAVTVSS
VL: QSALTQPPSASGSPGQSVTISCTGTSSDVGGYNYVSWYQQHPDKAPKLMIYEVSKRPSGVPDRFSGSKSGNTASLTVSGLQAEDEADYYCSSYAGNNNLVFGTGTKVTVL
binding result [1]: binds
binding result [2]: binds

B9: P5-1H1 (full IgG1) (antibody, V domains shown)
VH: EVQLVESGGGLIQPGGSLRLSCAASGITVSSNYMTWVRQPPGKGLEWVSVIYSGGSTFYADPVKGRFTISRDNSRNTLYLQMNSLRAEDTAVYYCARDLQVYGMDVWGQGTTVTVSS
VL: DIQLTQSPSFLSASVGDRVTITCRASQGISNFLAWYQQKPGKAPKLLIYAASTLQGGVPSTFSGSGSGTEFTLTISSLQPEDFATYYCQHLNDYPLFGGGTRVEIK
binding result [3]: binds
binding result [4]: binds

B10: P2-1B1 (full IgG1) (antibody, V domains shown)
VH: QVQLVQSGAEVKRPGSSVKVSCKASGGTFSSYAISWVRQAPGQGPEWMGGIIPIFGTPHNAQKFQGRVTITADESTSTAYMELSSLRSEDTAMYYCSRTKGDILTGYTDYYFDSWGQGTLVTVSS
VL: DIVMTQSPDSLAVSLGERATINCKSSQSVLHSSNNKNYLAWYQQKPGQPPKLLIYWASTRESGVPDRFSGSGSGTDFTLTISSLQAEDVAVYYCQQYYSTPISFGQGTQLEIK
binding result [3]: binds
binding result [4]: binds

B11: P5-1C8 (full IgG1) (antibody, V domains shown)
VH: EVQLVESGGGLIQPGGSLRLSCAASEIIVSRNYMNWVRQAPGKGLEWVSVIYSGGSTFYADSVKGRFTISRDNSENTLYLQMNSLRAEDTAVYYCARGYGDYYFDYWGRGTLVTVSS
VL: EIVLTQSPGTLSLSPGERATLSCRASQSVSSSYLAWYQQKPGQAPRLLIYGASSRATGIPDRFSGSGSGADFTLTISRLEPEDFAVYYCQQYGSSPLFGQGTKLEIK
binding result [3]: binds
binding result [4]: binds

B12: P5-1H1 Fab (Fab, V domains shown)
VH: EVQLVESGGGLIQPGGSLRLSCAASGITVSSNYMTWVRQPPGKGLEWVSVIYSGGSTFYADPVKGRFTISRDNSRNTLYLQMNSLRAEDTAVYYCARDLQVYGMDVWGQGTTVTVSS
VL: DIQLTQSPSFLSASVGDRVTITCRASQGISNFLAWYQQKPGKAPKLLIYAASTLQGGVPSTFSGSGSGTEFTLTISSLQPEDFATYYCQHLNDYPLFGGGTRVEIK
binding result (SARS-CoV-2 wild-type RBD): binds
